Test results: patent US20090270309A1, “USE OF LACTOFERRIN FRAGMENTS AND HYDROLYSATES” (priority 2005, published 2009)

B1: SEQ ID NO. 6: Bovine lactoferrin N-lobe, residues 1-280 of SEQ ID NO. 2, tryptic cleavage (protein, listed as Bos taurus)
chain: APRKNVRWCTISQPEWFKCRRWQWRMKKLGAPSITCVRRAFALECIRAIAEKKADAVTLDGGMVFEAGRDPYKLRPVAAEIYGTKESPQTHYYAVAVVKKGSNFQLDQLQGRKSCHTGLGRSAGWIIPMGILRPYLSWTESLEPLQGAVAKFFSASCVPCIDRQAYPNLCQLCKGEGENQCACSSREPYFGYSGAFKCLQDGAGDVAFVKETTVFENLPEKADRDQYELLCLNNSRAPVDAFKECHLAQVPSHAVVARSVDGKEDLIWKLLSKAQEKFGK
B2: SEQ ID NO. 7: Bovine lactoferrin C-lobe, residues 345-689 of SEQ ID NO. 2, tryptic cleavage (protein, listed as Bos taurus)
chain: VVWCAVGPEEQKKCQQWSQQSGQNVTCATASTTDDCIVLVLKGEADALNLDGGYIYTAGKCGLVPVLAENRKSSKHSSLDCVLRPTEGYLAVAVVKKANEGLTWNSLKDKKSCHTAVDRTAGWNIPMGLIVNQTGSCAFDEFFSQSCAPGADPKSRLCALCAGDDQGLDKCVPNSKEKYYGYTGAFRCLAEDVGDVAFVKNDTVWENTNGESTADWAKNLNREDFRLLCLDGTRKPVTEAQSCHLAVAPNHAVVSRSDRAAHVKQVLLHQQALFGKNGKNCPDKFCLFKSETKNLLFNDNTECLAKLGGRPTYEEYLGTEYVTAIANLKKCSTSPLLEACAFLTR
B3: full length recombinant human lactoferrin: Full-length recombinant human lactoferrin, comparator (protein, UniProt P02788 1-710, looked up)
chain: MKLVFLVLLFLGALGLCLAGRRRSVQWCAVSQPEATKCFQWQRNMRKVRGPPVSCIKRDSPIQCIQAIAENRADAVTLDGGFIYEAGLAPYKLRPVAAEVYGTERQPRTHYYAVAVVKKGGSFQLNELQGLKSCHTGLRRTAGWNVPIGTLRPFLNWTGPPEPIEAAVARFFSASCVPGADKGQFPNLCRLCAGTGENKCAFSSQEPYFSYSGAFKCLRDGAGDVAFIRESTVFEDLSDEAERDEYELLCPDNTRKPVDKFKDCHLARVPSHAVVARSVNGKEDAIWNLLRQAQEKFGKDKSPKFQLFGSPSGQKDLLFKDSAIGFSRVPPRIDSGLYLGSGYFTAIQNLRKSEEEVAARRARVVWCAVGEQELRKCNQWSGLSEGSVTCSSASTTEDCIALVLKGEADAMSLDGGYVYTAGKCGLVPVLAENYKSQQSSDPDPNCVDRPVEGYLAVAVVRRSDTSLTWNSVKGKKSCHTAVDRTAGWNIPMGLLFNQTGSCKFDEYFSQSCAPGSDPRSNLCALCIGDEQGENKCVPNSNERYYGYTGAFRCLAENAGDVAFVKDVTVLQNTDGNNNEAWAKDLKLADFALLCLDGKRKPVTEARSCHLAMAPNHAVVSRMDKVERLKQVLLHQQAKFGRNGSDCPDKFCLFQSETKNLLFNDNTECLARLHGKTTYEKYLGPQYVAGITNLKKCSTSPLLEACEFLRK
modifications: full-length recombinant
notes: Full-length recombinant human lactoferrin, comparator
B4: SEQ ID NO. 8: Bovine lactoferrin C-lobe, residues 285-689 of SEQ ID NO. 2, controlled tryptic hydrolysis (protein, listed as Bos taurus)
chain: SFQLFGSPPGQRDLLFKDSALGFLRIPSKVDSALYLGSRYLTTLKNLRETAEEVKARYTRVVWCAVGPEEQKKCQQWSQQSGQNVTCATASTTDDCIVLVLKGEADALNLDGGYIYTAGKCGLVPVLAENRKSSKHSSLDCVLRPTEGYLAVAVVKKANEGLTWNSLKDKKSCHTAVDRTAGWNIPMGLIVNQTGSCAFDEFFSQSCAPGADPKSRLCALCAGDDQGLDKCVPNSKEKYYGYTGAFRCLAEDVGDVAFVKNDTVWENTNGESTADWAKNLNREDFRLLCLDGTRKPVTEAQSCHLAVAPNHAVVSRSDRAAHVKQVLLHQQALFGKNGKNCPDKFCLFKSETKNLLFNDNTECLAKLGGRPTYEEYLGTEYVTAIANLKKCSTSPLLEACAFLTR
B5: osteoprotegerin (protein, UniProt O00300 22-401, looked up)
Tumor necrosis factor …: ETFPPKYLHYDEETSHQLLCDKCPPGTYLKQHCTAKWKTVCAPCPDHYYTDSWHTSDECLYCSPVCKELQYVKQECNRTHNRVCECKEGRYLEIEFCLKHRSCPPGFGVVQAGTPERNTVCKRCPDGFFSNETSSKAPCRKHTNCSVFGLLLTQKGNATHDNICSGNSESTQKCGIDVTLCEEAFFRFAVPTKFTPNWLSVLVDNLPGTKVNAESVERIKRQHSSQEQTFQLLKLWKHQNKDQDIVKKIIQDIDLCENSVQRHIGHANLTFEQLRSLMESLPGKKVGAEDIEKTIKACKPSDQILKLLSLWRIKNGDQDTLKGLMHALKHSKTYHFPKTVTQSLKKTIRFLHSFTMYKLYQKLFLEMIGNQVQSVKISCL
B6: SEQ ID NO. 5: Recombinant human lactoferrin N-lobe, residues 1-333 of SEQ ID NO. 4, expressed from baby hamster kidney cells (protein)
chain: GRRRRSVQWCAVSQPEATKCFQWQRNMRKVRGPPVSCIKRDSPIQCIQAIAENRADAVTLDGGFIYEAGLAPYKLRPVAAEVYGTERQPRTHYYAVAVVKKGGSFQLNELQGLKSCHTGLRRTAGWNVPIGTLRPFLNWTGPPEPIEAAVARFFSASCVPGADKGQFPNLCRLCAGTGENKCAFSSQEPYFSYSGAFKCLRDGAGDVAFIRESTVFEDLSDEAERDEYELLCPDNTRKPVDKFKDCHLARVPSHAVVARSVNGKEDAIWNLLRQAQEKFGKDKSPKFQLFGSPSGQKDLLFKDSAIGFSRVPPRIDSGLYLGSGYFTAIQNLR
modifications: Recombinant human lactoferrin N-lobe
notes: 4, expressed from baby hamster kidney cells

Experiments:
primary rat osteoblasts = test: Proliferation of primary rat osteoblasts (cell counts and [3H]-thymidine incorporation); type: cell-based; settings: for Mitogenic / proliferative effect on primary osteoblasts (in words): figure legends, significantly different from control by ANOVA, post hoc Dunnett's test; for Dose (ug/mL): minimum dose range that stimulates osteoblast proliferation: primary rat osteoblasts, Table 1
Method: Osteoblasts were isolated by collagenase digestion from 20-day fetal rat ? viously described by Lowe, et al. (1991). Calvariae were dissected aseptically, and the frontal and parietal bones were stripped of their periosteum. Only the central portions of the bones, free from suture tissue, were collected. The calvariae were treated twice with phosphate buffered saline (PBS) containing 3 mM EDTA (pH 7.4) for 15 minutes at 37° C. in a shaking water bath. After washing once in PBS, the calvariae were treated twice with 3 ml of 1 mg/ml collagenase for 7 minutes at 37° C. After discarding the supernatants from digestions I and II, the calvariae were treated further two times with 3 ml of 2 mg/ml collagenase (30 mins, 37° C.). The supernatants of digestions III and IV were pooled, centrifuged, and the cells washed in Dulbecco's modified Eagle's medium (DME) with 10% fetal calf serum (FCS), suspended in DME/10% FCS, and placed in […] flasks. The cells were incubated under 5% CO2 and 95% air at 37° C. Confluence was reached by 5-6 days, at which time the cells were subcultured. After trypsinization using trypsin-EDTA (0.05%/0.53 mM), the cells were rinsed in minimum essential medium (MEM) with 5% FCS and resuspended in a fresh medium, then seeded at 5×10^4 cells/ml in 24-well plates (0.5 ml cell suspension per well, i.e., 1.4×10^4 cells/cm^2).
Proliferation studies (cell counts and thymidine incorporation) were performed both in actively growing and non-actively growing cell populations. To produce actively growing cells, sub-confluent populations (24 h after subculturing) were placed in fresh MEM containing 1% FCS and a lactoferrin fragment sample (see Table 1 below). To produce non-actively growing cells, sub-confluent populations were placed in serum-free medium with 0.1% bovine serum albumin plus a lactoferrin fragment sample. Cell numbers were analyzed at 6, 24, and 48 hours after the addition of lactoferrin fragment samples. The cell numbers were determined after detaching cells from the wells by exposure to trypsin/EDTA (0.05%/0.53 mM) for approximately 5 minutes at 37° C. Counting was performed in a haemocytometer chamber. [3H]-thymidine incorporation into actively growing and non-actively growing cells was assessed by pulsing the cells with [3H]-thymidine (1 μCi/well) two hours before the end of the incubation. The experiment was terminated at 6, 24, or 48 hours by washing the cells in MEM containing cold thymidine followed by the addition of 10% trichloroacetic acid. The precipitate was washed twice with ethanol:ether (3:1), and the wells desiccated at room temperature. The ? redissolved in 2 M KOH at 55° C. for 30 min, neutralized with 1 M HCl, and an aliquot counted for radioactivity. For both cell counts and thymidine incorporation, each experiment at each time point was performed at least 4 different times using experimental groups consisting of at least 6 wells.
The osteogenic response seen above was compared with that of insulin-like growth factor 1 (IGF-1), a well-recognized osteoblast mitogen. The magnitudes of response of the lactoferrin fragments were similar to IGF-1 in the same osteoblast cell culture system.

[1] = system: osteoclast development in a bone marrow culture; test: Osteoclast development in mouse bone marrow culture (count of multinucleated osteoclast-like cells); type: cell-based; settings: for Inhibition of osteoclast development in a bone marrow culture (in words): mouse bone marrow culture, 1 week, ANOVA P<0.0001; for Concentration with significant inhibition of osteoclast development: FIG. 7
Method: Bone marrow cultures were used to determine the effect of lactoferrin fragments on osteoclast development. The method used has been previously described (see Cornish, et al., (2001)). Bone marrow was obtained from the long bones of four to six week old Swiss male mice by flushing the marrow cavity with media. The cell suspension was incubated for two hours and the non-adherent cells were plated into 48-well plates and cultured in 1.25 vitamin D3 enriched media for 1 week with lactoferrin fragments at a range of concentrations. Cells were fixed and stained and multinucleated osteoclast-like cells were counted.
A recombinant N-lobe fragment of full length recombinant human lactoferrin (SEQ ID NO. 5) and a lactoferrin C-lobe fragment (SEQ ID NO. 8) were tested. Osteoprotegerin was used as a positive inhibitor control. Full length recombinant human lactoferrin was also tested. The results are shown in FIGS. 6 and 7, as described above.

Molecule | Mitogenic / proliferative effect on primary osteoblasts (in words) (primary rat osteoblasts) | Dose (ug/mL): minimum dose range that stimulates osteoblast proliferation (primary rat osteoblasts) [µg/mL] | Inhibition of osteoclast development in a bone marrow culture (in words) [1] | Concentration with significant inhibition of osteoclast development ([1]; P<0.05 (post hoc Dunnett's test)) [µg/mL] | Concentration with significant inhibition of osteoclast development ([1]; positive inhibitor control, P<0.01 (post hoc Dunnett's test)) [µg/mL]
B1 | mitogenic to primary osteoblasts | 1 to 100 |  |  | 
B2 | mitogenic to primary osteoblasts | 1 to 100 |  |  | 
B3 |  |  | inhibition of osteoclast development |  | 
B4 | mitogenic to primary osteoblasts | 1 to 100 | inhibition of osteoclast development | 50 | 
B5 |  |  |  |  | 0.01
B6 | osteoblast proliferative effects | 0.1 to 10 | inhibition of osteoclast development |  | 
